B1: HLA-B (full length, FLAG-tagged, expressed in HEK293 cells) (receptor)
MHC heavy: GSHSMRYFYTSVSRPGRGEPRFISVGYVDDTQFVRFDSDAASPREEPRAPWIEQEGPEYWDRNTQIYKAQAQTDRESLRNLRGYYNQSEAGSHTLQSMYGCDVGPDGRLLRGHDQYAYDGKDYIALNEDLRSWTAADTAAQITQRKWEAAREAEQRRAYLEGECVEWLRRYLENGKDKLERADPPKTHVTHHPISDHEATLRCWALGFYPAEITLTWQRDGEDQTQDTELVETRPAGDRTFQKWAAVVVPSGEEQRYTCHVQHEGLPKPLTLRWEPSSQSTVPIVGIVAGLAVLAVVVIGAVVAAVMCRRKSSGGKGGSYSQAACSDSAQGSDVSLTAEFGSGSGS
notes: also called HLA-B alone; not shown: triple-FLAG tag
B2: HLA-C (full length, FLAG-tagged, expressed in HEK293 cells) (receptor)
MHC heavy: CSHSMRYFDTAVSRPGRGEPRFISVGYVDDTQFVRFDSDAASPRGEPRAPWVEQEGPEYWDRETQKYKRQAQADRVSLRNLRGYYNQSEDGSHTLQRMSGCDLGPDGRLLRGYDQSAYDGKDYIALNEDLRSWTAADTAAQITQRKLEAARAAEQLRAYLEGTCVEWLRRYLENGKETLQRAEPPKTHVTHHPLSDHEATLRCWALGFYPAEITLTWQRDGEDQTQDTELVETRPAGDGTFQKWAAVVVPSGQEQRYTCHMQHEGLQEPLTLSWEPSSQPTIPIMGIVAGLAVLVVLAVLGAVVTAMMCRRKSSGGKGGSCSQAACSNSAQGSDESLITCKAEFGSGSGS
notes: also called HLA-C alone; not shown: triple-FLAG tag
B3: HLA-A (full length, 3× FLAG tagged, expressed in HEK293 cells) (receptor)
MHC heavy: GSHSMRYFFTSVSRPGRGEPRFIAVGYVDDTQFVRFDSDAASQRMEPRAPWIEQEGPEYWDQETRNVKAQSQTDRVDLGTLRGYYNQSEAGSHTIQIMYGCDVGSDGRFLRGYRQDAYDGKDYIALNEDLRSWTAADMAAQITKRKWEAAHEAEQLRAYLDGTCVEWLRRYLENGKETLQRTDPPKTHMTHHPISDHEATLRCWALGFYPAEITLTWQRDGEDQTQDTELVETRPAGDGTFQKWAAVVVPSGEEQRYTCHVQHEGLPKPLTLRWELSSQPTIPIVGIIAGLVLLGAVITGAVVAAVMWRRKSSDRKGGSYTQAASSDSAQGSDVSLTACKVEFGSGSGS
notes: also called HLA-A alone; not shown: triple-FLAG tag

Molecular target: GST-Epx2 (E. faecium, UniProt P08515 1-218 = GST)
Assay: GST pull-down from lysates of transfected HEK293 cells, anti-FLAG immunoblot

Sequence of GST-Epx2 (P08515 1-218, tags or fused parts left off): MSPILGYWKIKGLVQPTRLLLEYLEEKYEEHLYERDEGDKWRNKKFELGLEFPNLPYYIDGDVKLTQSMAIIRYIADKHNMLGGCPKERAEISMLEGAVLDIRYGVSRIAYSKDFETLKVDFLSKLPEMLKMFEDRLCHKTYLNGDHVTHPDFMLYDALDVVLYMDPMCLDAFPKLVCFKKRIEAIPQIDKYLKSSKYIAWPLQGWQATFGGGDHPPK

Row | Binder | binding result
1 | B1 | no binding
2 | B2 | no binding
3 | B3 | no binding

Molecular target: GST-Epx3 (E. faecalis, UniProt P08515 1-218 = GST)
Assay: as above

Sequence of GST-Epx3 (P08515 1-218, tags or fused parts left off): as above

Row | Binder | binding result
4 | B1 | no binding
5 | B2 | no binding
6 | B3 | no binding
